Where a chain is given by its changes, count along the chain named. Ends that are not written are not given here.

The target of experiment [1] is T1, rat CRF receptor, type 1 (rat, UniProt P35353). Briefly: SPA competition with 0.05 nM [125I-Tyr0]h/rCRF, HEK-293 membranes; 95% CI (0.06-0.51).
In experiment [2] the target is T1, rat CRF receptor, type 1. Briefly: SPA competition with 0.05 nM [125I-Tyr0]h/rCRF, HEK-293 membranes; 95% CI (0.15-0.49).

B1: [Ala^21,23Arg^22]Svg (peptide)
peptide: QGPPISIDLSLELLRKMIEIARAEKEKQQAANNRLLLDTI
modifications: ends and bridges not checked
Regarding B1, in the experiment with rat CRF receptor, type 1 [1], the IC50 was 0.29 nM.

B2: [Ala^21]Svg (peptide)
peptide: B1 peptide with R22K, A23Q
modifications: ends and bridges not checked
As for B2, the IC50 in the experiment with rat CRF receptor, type 1 [2] was 0.32 nM.

A word on the IC50: it is the concentration that inhibits the measured activity by half.
